Data as given in PMC9351521 (Proceedings of the National Academy of Sciences of the …, 2022).

Tests used:
Conditions in all cases: both partners purified
[1] = target: T1, His-tagged SARS-CoV-2 RBD T332-K529 with Pro-527 omitted (SARS-CoV-2, wild-type RBD (P0DTC2 …)); assay: crystal structure
T1 construct: also called isolated RBD

[2] = target: T2, SARS-CoV-2 spike receptor binding domain, His-tagged (T332-K529 with Pro-527 omitted) (SARS-CoV-2, wild-type RBD (P0DTC2 …)); assay: ITC; […]; iTC200, 25 °C, PBS; […]
T2 construct: also called RBD

[3] = target: biotinylated RBD (wild type) (SARS-CoV-2, wild-type RBD (P0DTC2 …)); assay: SPR; […]; Biacore T200, PBS pH 7.4 with 0.005% P20, 25 °C
[4] = target: T2, SARS-CoV-2 spike receptor binding …; assay: ITC; […]; iTC200, 25 °C, PBS; […]; remark: listed apart in the source
[5] = target: T3, SARS-CoV-2 spike glycoprotein ectodomain (amino acids 1 to 1,208, GSAS, PP, T4 fibritin trimerization domain) (SARS-CoV-2, P0DTC2 sequence with GSAS …, RRAR > GSAS at residues 682 to 685 | KV > PP at residues 986 to 987); assay: ITC; […]; iTC200, 25 °C, PBS; […]
T3 construct: also called trimeric spike protein

[6] = target: T1, His-tagged SARS-CoV-2 RBD T332-K529 …; assay: ITC
biotinylated RBD = biotinylated RBD (SARS-CoV-2, wild-type RBD (P0DTC2 …)); assay: SPR; Biacore T200, PBS pH 7.4 with 0.005% P20, 25 °C; […]; 1:1 binding model
[7] = target: T4, SARS-CoV-2 spike glycoprotein ectodomain (amino acids 1 to 1,208, RRAR > GSAS, KV > PP, T4 fibritin … (SARS-CoV-2, P0DTC2 sequence with GSAS …, RRAR > GSAS at residues 682 to 685 | KV > PP at residues 986 to 987)); assay: ITC
T4 construct: also called Spike protein; trimeric spike protein

B1: nanobody F2 (VHH)
VHH: QVQLVESGGGLVQAGGSLRLACIASGRTFHSYVMAWFRQAPGKEREFVAAISWSSTPTYYGESVKGRFTISRDNAKNTVYLQMNRLKPEDTAVYFCAADRGESYYYTRPTEYEFWGQGTQVTVSS
- binding result [1]: binds

B2: H11-A10 (VHH)
VHH: QVQLVESGGGLMQAGGSLRLSCAVSGRTFSTAAMGWFRQAPGKEREFVAAIRWSGGSAYYADSVKGRFTISRDKAKNTVYLQMNSLKYEDTAVYYCAGFSATRSLLSDYATWPYDYWGQGTQVTVSS
- stoichiometry N [2]: 1

B3: nanobody H11 (VHH)
VHH: QVQLVESGGGLMQAGGSLRLSCAVSGRTFSTAAMGWFRQAPGKEREFVAAIRWSGGSAYYADSVKGRFTISRDKAKNTVYLQMNSLKYEDTAVYYCAQTRVTRSLLSDYATWPYDYWGQGTQVTVSS
notes: also called parent H11; parent nanobody
- binding result [1]: binds

B4: H11-H4 R52K (VHH)
VHH: QVQLVESGGGLMQAGGSLRLSCAVSGRTFSTAAMGWFRQAPGKEREFVAAIKWSGGSAYYADSVKGRFTISRDKAKNTVYLQMNSLKYEDTAVYYCAQTHYVSYLLSDYATWPYDYWGQGTQVTVSS
- binding result [3]: no binding (tested: 1 µM)

B5: H11-B5 (VHH)
VHH: QVQLVESGGGLMQAGGSLRLSCAVSGRTFSTAAMGWFRQAPGKEREFVAAIRWSGGSAYYADSVKGRFTISRDKAKNTVYLQMNSLKYEDTAVYYCASYQATRSLLSDYATWPYDYWGQGTQVTVSS
- stoichiometry N [2]: 1

B6: H11 V101Y R103S (VHH)
VHH: QVQLVESGGGLMQAGGSLRLSCAVSGRTFSTAAMGWFRQAPGKEREFVAAIRWSGGSAYYADSVKGRFTISRDKAKNTVYLQMNSLKYEDTAVYYCAQTRYTSSLLSDYATWPYDYWGQGTQVTVSS
- stoichiometry N [2]: 1

B7: H11-H4 R52A (VHH)
VHH: QVQLVESGGGLMQAGGSLRLSCAVSGRTFSTAAMGWFRQAPGKEREFVAAIAWSGGSAYYADSVKGRFTISRDKAKNTVYLQMNSLKYEDTAVYYCAQTHYVSYLLSDYATWPYDYWGQGTQVTVSS
- binding result [3]: no binding (tested: 1 µM)

B8: H11-H4 Q98R H100E (D4 hybrid) (VHH)
VHH: QVQLVESGGGLMQAGGSLRLSCAVSGRTFSTAAMGWFRQAPGKEREFVAAIRWSGGSAYYADSVKGRFTISRDKAKNTVYLQMNSLKYEDTAVYYCARTEYVSYLLSDYATWPYDYWGQGTQVTVSS
- stoichiometry N [4]: 1
- stoichiometry N [5]: 1

B9: H11-H4 R52E (VHH)
VHH: QVQLVESGGGLMQAGGSLRLSCAVSGRTFSTAAMGWFRQAPGKEREFVAAIEWSGGSAYYADSVKGRFTISRDKAKNTVYLQMNSLKYEDTAVYYCAQTHYVSYLLSDYATWPYDYWGQGTQVTVSS
- binding result [3]: no binding (tested: 1 µM)

B10: nanobody H11-A10 (VHH)
VHH: QVQLVESGGGLMQAGGSLRLSCAVSGRTFSTAAMGWFRQAPGKEREFVAAIRWSGGSAYYADSVKGRFTISRDKAKNTVYLQMNSLKYEDTAVYYCAGFSATRSLLSDYATWPYDYWGQGTQVTVSS
- Kd [6]: 60 ± 4.6 nM
- dH [6]: -19.8 kcal/mol

B11: nanobody H11 V101Y R103S (VHH)
VHH: QVQLVESGGGLMQAGGSLRLSCAVSGRTFSTAAMGWFRQAPGKEREFVAAIRWSGGSAYYADSVKGRFTISRDKAKNTVYLQMNSLKYEDTAVYYCAQTRYTSSLLSDYATWPYDYWGQGTQVTVSS
notes: also called double mutant A101Y, R103S
- Kd [6]: 5220 nM
- dH [6]: -11 kcal/mol

B12: nanobody H11-H6 (VHH)
VHH: QVQLVESGGGLMQAGGSLRLSCAVSGRTFSTAAMGWFRQAPGKEREFVAAIRWSGGSAYYADSVKGRFTISRDKAKNTVYLQMNSLKYEDTAVYYCAGSKITRSLLSDYATWPYDYWGQGTQVTVSS
- Kd [6]: 57 ± 4.5 nM
- dH [6]: -19.1 kcal/mol

B13: nanobody H11-H4 Q98R H100E (D4 hybrid) (VHH)
VHH: QVQLVESGGGLMQAGGSLRLSCAVSGRTFSTAAMGWFRQAPGKEREFVAAIRWSGGSAYYADSVKGRFTISRDKAKNTVYLQMNSLKYEDTAVYYCARTEYVSYLLSDYATWPYDYWGQGTQVTVSS
notes: also called H4-D4 hybrid; hybrid nanobody
- t1/2 (biotinylated RBD): 29 s
- Kd [7]: 21 ± 3 nM
- dH [7]: -14.8 kcal/mol
- Kd [6]: 18 ± 1 nM
- dH [6]: -16.5 kcal/mol

B14: H11-H6 (VHH)
VHH: QVQLVESGGGLMQAGGSLRLSCAVSGRTFSTAAMGWFRQAPGKEREFVAAIRWSGGSAYYADSVKGRFTISRDKAKNTVYLQMNSLKYEDTAVYYCAGSKITRSLLSDYATWPYDYWGQGTQVTVSS
- stoichiometry N [4]: 1

B15: nanobody H11-B5 (VHH)
VHH: QVQLVESGGGLMQAGGSLRLSCAVSGRTFSTAAMGWFRQAPGKEREFVAAIRWSGGSAYYADSVKGRFTISRDKAKNTVYLQMNSLKYEDTAVYYCASYQATRSLLSDYATWPYDYWGQGTQVTVSS
- Kd [6]: 53 ± 5.3 nM
- dH [6]: -16.3 kcal/mol

B16: nanobody H11-H4 Y104S (VHH)
VHH: QVQLVESGGGLMQAGGSLRLSCAVSGRTFSTAAMGWFRQAPGKEREFVAAIRWSGGSAYYADSVKGRFTISRDKAKNTVYLQMNSLKYEDTAVYYCAQTHYVSSLLSDYATWPYDYWGQGTQVTVSS
- Kd [6]: 409 ± 91 nM
- dH [6]: -11 kcal/mol

B17: H11-H4 Y104S (VHH)
VHH: QVQLVESGGGLMQAGGSLRLSCAVSGRTFSTAAMGWFRQAPGKEREFVAAIRWSGGSAYYADSVKGRFTISRDKAKNTVYLQMNSLKYEDTAVYYCAQTHYVSSLLSDYATWPYDYWGQGTQVTVSS
- stoichiometry N [2]: 1
